The supplement of paper PMC7125110
± gives the standard error. For part of these data: This sample holds only a part of the variants without activity.

B1: glmS ribozyme (parent)
chain: AUAAAAGCGCCAGAACUACAGAAAUGUAGUUGACGAGGAGGAGGUUUAUCGAAUUUUCGGCGGAUGCCUCCAAA

How the values were obtained:
Settings in all cases: with glucosamine-6-phosphate
[1] = variants of: B1; assay: kcat; higher = faster cleavage; RNA array
In short: (§1)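 Glucosamine-6-phosphate (40 μM to 10 mM) in HEPES/KCl/Mg(OAc)2 buffer was flowed over sequenced MiSeq chips, and tiles were imaged over ~14 h. Barcoded ribozyme variants there had been transcribed in situ by E. coli RNA polymerase and were tracked through a hybridised Cy3 probe at 37 °C. One- or two-exponential decay fits to per-tile medians, normalised to baseline and to non-cleaving reference variants, gave kobs. kcat and KM came from weighted Michaelis–Menten fits across concentrations.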

[2] = variants of: B1; assay: self-cleavage kobs at 40 uM GlcN6P; higher = faster cleavage; RNA array
In short: as §1

[3] = variants of: B1; assay: self-cleavage kobs at 160 uM GlcN6P; higher = faster cleavage; RNA array
In short: as §1

[4] = variants of: B1; assay: self-cleavage kobs at 640 uM GlcN6P; higher = faster cleavage; RNA array
In short: as §1

[5] = variants of: B1; assay: self-cleavage kobs at 10000 uM GlcN6P; higher = faster cleavage; RNA array
In short: as §1

[6] = variants of: B1; assay: self-cleavage kobs at 2500 uM GlcN6P; higher = faster cleavage; RNA array
In short: as §1

[7] = variants of: B1; assay: KM; higher = weaker cofactor use; RNA array
In short: as §1

Row | Variant | kcat [1] | self-cleavage kobs at 40 uM GlcN6P [2] | self-cleavage kobs at 160 uM GlcN6P [3] | self-cleavage kobs at 640 uM GlcN6P [4] | self-cleavage kobs at 10000 uM GlcN6P [5] | self-cleavage kobs at 2500 uM GlcN6P [6] | KM [7]
1 | A42G U54A | 0.0214 ± 0.0099 s⁻¹ | 0.000967 ± 0.00013 s⁻¹ | 0.00396 ± 0.0011 s⁻¹ | 0.029 ± 0.0057 s⁻¹ | 0.0172 ± 0.004 s⁻¹ | – | –
2 | A6U U30A A36C | < 1e-05 s⁻¹ | – | < 1e-05 s⁻¹ | – | < 1e-05 s⁻¹ | – | –
3 | C34G U56G C70U | 3.47e-05 ± 8.1e-06 s⁻¹ | – | – | 3.21e-05 ± 1.5e-05 s⁻¹ | – | 4.52e-05 ± 2.2e-05 s⁻¹ | –
4 | U45C | 0.00494 ± 0.00052 s⁻¹ | 7.81e-05 ± 1.8e-06 s⁻¹ | 0.000232 ± 9.5e-06 s⁻¹ | 0.000897 ± 2.2e-05 s⁻¹ | 0.00385 ± 9.4e-05 s⁻¹ | 0.00247 ± 6.8e-05 s⁻¹ | 2740 ± 390 µM
5 | U31C U65C | 5e-05 ± 2.5e-06 s⁻¹ | – | – | 3.88e-05 ± 1.4e-05 s⁻¹ | 4.78e-05 ± 6.9e-06 s⁻¹ | 4.75e-05 ± 9.5e-06 s⁻¹ | 238 ± 120 µM
6 | A15G A64U | 0.000233 ± 2.7e-05 s⁻¹ | – | – | 3.22e-05 ± 9e-06 s⁻¹ | 0.000169 ± 2.4e-05 s⁻¹ | 9.11e-05 ± 1.2e-05 s⁻¹ | 3870 ± 820 µM
7 | C11A U57G | < 1e-05 s⁻¹ | – | < 1e-05 s⁻¹ | – | – | – | –
8 | G13C U47G | 3.48e-05 ± 2.1e-06 s⁻¹ | < 1e-05 s⁻¹ | – | – | 3.53e-05 ± 8.5e-06 s⁻¹ | – | –
9 | A12G A42U A53C | < 1e-05 s⁻¹ | < 1e-05 s⁻¹ | – | – | – | – | –
10 | C11U U55G | 0.0019 ± 0.00039 s⁻¹ | 5.89e-05 ± 1.1e-05 s⁻¹ | 0.000214 ± 4.9e-05 s⁻¹ | 0.000351 ± 7.6e-05 s⁻¹ | 0.00164 ± 0.00016 s⁻¹ | 0.00137 ± 0.00026 s⁻¹ | 1700 ± 660 µM
11 | A12U U47G C70G | 0.000218 ± 4.7e-05 s⁻¹ | 6.36e-05 ± 1.3e-05 s⁻¹ | 7.51e-05 ± 1.5e-05 s⁻¹ | 0.000234 ± 3.9e-05 s⁻¹ | 0.000201 ± 3.3e-05 s⁻¹ | 0.000217 ± 3.7e-05 s⁻¹ | –
12 | U49G A52U | 1.85e-05 ± 1.5e-06 s⁻¹ | – | < 1e-05 s⁻¹ | – | – | – | 2320 ± 910 µM
13 | U30A U45A | 0.00916 ± 0.0024 s⁻¹ | 0.000369 ± 6.4e-05 s⁻¹ | 0.000872 ± 0.00018 s⁻¹ | 0.00285 ± 0.00065 s⁻¹ | 0.0107 ± 0.0021 s⁻¹ | 0.00515 ± 0.001 s⁻¹ | 1290 ± 500 µM
14 | U55C U57G | 3.92e-05 ± 2.9e-06 s⁻¹ | < 1e-05 s⁻¹ | < 1e-05 s⁻¹ | – | – | 2.98e-05 ± 1.5e-05 s⁻¹ | 840 ± 320 µM
15 | A14C A39C | 0.000549 ± 0.00015 s⁻¹ | – | – | 5.77e-05 ± 9.6e-06 s⁻¹ | 0.000346 ± 4.9e-05 s⁻¹ | 0.000254 ± 3.3e-05 s⁻¹ | 4660 ± 2000 µM
16 | A39U A42G | 0.0208 ± 0.0077 s⁻¹ | 0.000671 ± 0.00011 s⁻¹ | 0.00186 ± 0.00055 s⁻¹ | 0.0052 ± 0.0011 s⁻¹ | 0.019 ± 0.006 s⁻¹ | 0.0216 ± 0.0065 s⁻¹ | 1440 ± 690 µM
